Target: the molecule itself
Assay: SEC

B1: Mycobacterium tuberculosis RNase J, full-length wild type (enzyme)
chain: MDVDLPPPGPLTSGGLRVTALGGINEIGRNMTVFEHLGRLLIIDCGVLFPGHDEPGVDLILPDMRHVEDRLDDIEALVLTHGHEDHIGAIPFLLKLRPDIPVVGSKFTLALVAEKCREYRITPVFVEVREGQSTRHGVFECEYFAVNHSTPDALAIAVYTGAGTILHTGDIKFDQLPPDGRPTDLPGMSRLGDTGVDLLLCDSTNAEIPGVGPSESEVGPTLHRLIRGADGRVIVACFASNVDRVQQIIDAAVALGRRVSFVGRSMVRNMRVARQLGFLRVADSDLIDIAAAETMAPDQVVLITTGTQGEPMSALSRMSRGEHRSITLTAGDLIVLSSSLIPGNEEAVFGVIDALSKIGARVVTNAQARVHVSGHAYAGELLFLYNGVRPRNVMPVHGTWRMLRANAKLAASTGVPQESILLAENGVSVDLVAGKASISGAVPVGKMFVDGLIAGDVGDITLGERLILSSGFVAVTVVVRRGTGQPLAAPHLHSRGFSEDPKALEPAVRKVEAELESLVAANVTDPIRIAQGVRRTVGKWVGETYRRQPMIVPTVIEV
notes: also called Mtb-RNase J; WT; not shown: 6xHis-sumo, N-terminal, cleaved
- stoichiometry N: 2
